Measured values: article PMC12443476 (eLife, 2025)

Target: T1, biotinylated Tom70 (109-600) with N-terminal AVI tag (human, UniProt O94826 109-600, biotin (AVI tag, by co-expressed BirA))
T1 construct: also called biotin-Tom70; immobilized Tom70
T1 sequence: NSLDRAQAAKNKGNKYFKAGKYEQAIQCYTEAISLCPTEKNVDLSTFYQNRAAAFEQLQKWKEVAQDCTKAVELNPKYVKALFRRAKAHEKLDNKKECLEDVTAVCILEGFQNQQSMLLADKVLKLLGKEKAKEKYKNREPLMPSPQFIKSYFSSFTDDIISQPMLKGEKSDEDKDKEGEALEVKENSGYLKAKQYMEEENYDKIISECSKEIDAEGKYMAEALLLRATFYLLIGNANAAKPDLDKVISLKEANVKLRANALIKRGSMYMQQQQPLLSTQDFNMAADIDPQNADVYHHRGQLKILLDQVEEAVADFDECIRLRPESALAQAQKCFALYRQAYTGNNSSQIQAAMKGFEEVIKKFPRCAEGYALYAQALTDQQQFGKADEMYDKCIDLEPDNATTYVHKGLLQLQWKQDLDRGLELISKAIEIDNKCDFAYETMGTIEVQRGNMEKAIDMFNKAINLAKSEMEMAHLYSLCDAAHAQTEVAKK
Assay: SPR
Conditions: both partners purified

B1: Orf9b T60A peptide (peptide)
peptide: IILRLGSPLSLNMARKALNSLEDKAFQ
binding result: binds
